Laboratory results published in patent publication US20230227584A1 (published 2023).

Legend:
[1] = target: T1, human OX40 on the cell surface (activated human T cells; HeLa_hOx40_NFkB_Luc1 reporter cells) (human, UniProt P43489 29-277); experiment: cell-based or functional assay
T1 sequence: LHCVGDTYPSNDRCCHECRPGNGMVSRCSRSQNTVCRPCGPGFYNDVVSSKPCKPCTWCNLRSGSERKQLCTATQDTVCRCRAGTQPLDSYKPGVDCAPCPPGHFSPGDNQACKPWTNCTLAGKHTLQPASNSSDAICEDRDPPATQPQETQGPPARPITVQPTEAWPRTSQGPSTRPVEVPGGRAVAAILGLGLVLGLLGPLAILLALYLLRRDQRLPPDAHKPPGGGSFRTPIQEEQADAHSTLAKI

[2] = target: T1, human OX40 on the cell surface …; experiment: cell-based or functional assay; remark: listed apart in the source
[3] = target: T2, human fibroblast activation protein (huFAP) on NIH/3T3-huFAP clone 19 cells (human, UniProt Q12884 1-760); experiment: flow cytometry, NIH/3T3-huFAP clone 19 cells
T2 construct: Mouse NIH/3T3 fibroblasts transfected with vector pETR4921 to express huFAP; also called cell surface FAP
Description: In another experiment, a mixture of 2 × 10⁵ NIH/3T3-huFAP clone 19 cells and HeLa cells in FACS buffer were added to each well of a round-bottom 96-well plates (TPP, Cat. No. 92097) and the binding assay was performed. Cells were first stained 20 min with LIVE/DEAD™ Fixable Aqua Dead Cell Stain (Molecular probes, Cat.No. L34957) in DPBS, followed after one washing step with 200 µL 4° C. […] Afterwards the cells were washed once with 200 µL FACS buffer at 4° C. and resuspended by a short vortex. Cells were further stained with 50 µL/well of 4° C. cold secondary antibody solution containing Phycoerythrin (PE)-conjugated AffiniPure anti-human IgG Fcy-fragment-specific goat IgG F(ab′)2 fragment (Jackson ImmunoResearch, Cat. No. 109-116-098) and incubated for 30 minutes at 4° C. in the dark. Samples were finally resuspended in 100 µL/well FACS-buffer and acquired the same day using with BD Fortessa running FACS Diva software.

[4] = target: T1, human OX40 on the cell surface …; experiment: cell-based or functional assay; remark: listed apart in the source
[5] = target: T3, FcRn (biotinylated, coupled to streptavidin-sepharose); experiment: FcRn affinity chromatography; retention compared to protein standards with known affinities
T3 construct: also called neonatal Fc receptor
Description: For coupling, the prepared receptor was added to streptavidin-sepharose (GE Healthcare). The resulting FcRn-sepharose matrix was packed in a column housing. The column was equilibrated with 20 mM 2-(N-morpholine)-ethanesulfonic acid (MES) and 140 mM NaCl, pH 5.5 (eluent A) at a 0.5 ml/min flow rate. 30 µg of antibody samples were diluted at a volume ratio of 1: 1 with eluent A and applied to the FcRn column. The column was washed with 5 column volumes of eluent A followed by elution with a linear gradient from 20 to 100% 20 mM Tris/HCl and 140 mM NaCl, pH 8.8 (eluent B) in 35 column volumes. The analysis was performed with a column oven at 25° C. The elution profile was monitored by continuous measurement of the absorbance at 280 nm. Retention times were compared to protein standards with known affinities.

[6] = target: T1, human OX40 on the cell surface …; experiment: flow cytometry, activated human PBMC gated on CD4+ T cells
[7] = target: T1, human OX40 on the cell surface …; experiment: cell-based or functional assay; remark: listed apart in the source

EC50 of increased TCB mediated cytokine secretion following FAP-OX40 costimulation of primary human PBMCs [1] [nM] | EC50 of suppression of FoxP3 induction (FoxP3 MFI) on TGFβ-exposed CD4 T cells, FAP-coated beads [2] [nM] | EC50 [3] [nM] | EC50 of NFκB activation (luciferase), HeLa_hOx40_NFkB_Luc1, w/ hu FAP [4] [nM] | EC50 of NFκB activation (luciferase), HeLa_hOx40_NFkB_Luc1, w/o [4] [nM] | FcRn affinity [5] | EC50 [6] [nM] | EC50 of CD25 upregulation on CD4+ T cells, suboptimal TCR stimulation of human PBMC with NIH/3T3-huFAP cells [7] [nM] | Binder
0.058 | 0.25 | 1.71 | 0.2 | 0.8 | -0.1 | 1.47 | 0.003 | P1AF6455 OX40(CLC563) x FAP(1G1a_EPKSCS) 3+1 (bispecific antibody, human IgG1, kappa, L234A L235A, Human IgG1 Fc, knob-into-hole, PGLALA; also called CLC-563, S-variant 3+1) heavy 1: not shown heavy 2: not shown light 1: not shown light 2: EIVLTQSPATLSLSPGERATLSCRASESVDNYGLSFINWFQQKPGQAPRLLIYGTSNRGSGIPARFSGSGSGTDFTLTISSLEPEDFAVYFCQQSNEVPYTFGGGTKVEIKSSASTKGPSVFPLAPSSKSTSGGTAALGCLVKDYFPEPVTVSWNSGALTSGVHTFPAVLQSSGLYSLSSVVTVPSSSLGTQTYICNVNHKPSNTKVDKKVEPKSCS
0.144 | 0.11 | 1.22 | 0.2 | 1.9 | -0.1 | 1.64 | 0.001 | P1AF6454 OX40 (CLC563) x FAP (1G1a_EPKSCD) (3+1) C-terminal crossfab fusion (bispecific antibody, human IgG1, kappa, L234A L235A, 3+1 format; Human IgG1 Fc, knob-into-hole, PGLALA; VL-CH1 chain ends in EPKSCD; also called CLC-563, D-variant 3+1; 3+1 CLC563/H212-D) heavy 1: not shown heavy 2: not shown light 1: not shown light 2: EIVLTQSPATLSLSPGERATLSCRASESVDNYGLSFINWFQQKPGQAPRLLIYGTSNRGSGIPARFSGSGSGTDFTLTISSLEPEDFAVYFCQQSNEVPYTFGGGTKVEIKSSASTKGPSVFPLAPSSKSTSGGTAALGCLVKDYFPEPVTVSWNSGALTSGVHTFPAVLQSSGLYSLSSVVTVPSSSLGTQTYICNVNHKPSNTKVDKKVEPKSCD
